# Source: publication PMC5685495
# Molecular target: wild-type human dopamine transporter (human) (UniProt Q01959)
# Chain of UniProt Q01959 (Q01959 whole entry): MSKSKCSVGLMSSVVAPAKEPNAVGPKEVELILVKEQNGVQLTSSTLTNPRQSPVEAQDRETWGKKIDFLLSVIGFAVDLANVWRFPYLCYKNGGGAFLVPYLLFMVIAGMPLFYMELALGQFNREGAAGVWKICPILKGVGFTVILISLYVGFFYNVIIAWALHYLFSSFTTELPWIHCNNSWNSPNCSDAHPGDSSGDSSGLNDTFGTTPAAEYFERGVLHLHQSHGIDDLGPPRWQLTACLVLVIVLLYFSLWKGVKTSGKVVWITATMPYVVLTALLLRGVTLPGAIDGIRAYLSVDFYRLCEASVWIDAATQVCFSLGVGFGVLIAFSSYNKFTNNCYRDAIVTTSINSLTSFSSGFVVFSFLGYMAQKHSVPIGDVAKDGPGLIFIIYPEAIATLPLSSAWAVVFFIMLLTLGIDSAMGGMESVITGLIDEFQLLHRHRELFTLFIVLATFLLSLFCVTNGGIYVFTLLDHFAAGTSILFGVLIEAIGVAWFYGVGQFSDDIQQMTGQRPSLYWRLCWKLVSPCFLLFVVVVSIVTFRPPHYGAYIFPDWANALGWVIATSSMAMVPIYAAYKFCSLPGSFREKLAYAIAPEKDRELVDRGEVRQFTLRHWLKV
substance,measurement,value
Recombinant Tat1-86 (from UniProt P04608 1-86) (natural protein),decrease in DA uptake by WT hDAT in the presence of recombinant Tat1-86,31%
